From patent US8962697 come the findings set out here.

The target in one data set is T1, LAR-7047.
T1 chain: VFFRRQTA

The target in the next data set is T2, LAR-7048.
T2 chain: PRRICV

For a further data set, the target named is T3, LAR-7009.
T3 chain: PRRRRPRQITA

B1: Aureolysin (protein)
chain: AAATGTGKGVLGDTKDININSIDGGFSLEDLTHQGKLSAYNFNDQTGQATLITNEDENFVKDDQRAGVDANYYAKQTYDYYKNTFGRESYDNHGSPIVSLTHVNHYGGQDNRNNAAWIGDKMIYGDGDGRTFTNLSGANDVVAHELTHGVTQETANLEYKDQSGALNESFSDVFGYFVDDEDFLMGEDVYTPGKEGDALRSMSNPEQFGQPSHMKDYVYTEKDNGGVHTNSGIPNKAAYNVIQAIGKSKSEQIYYRALTEYLTSNSNFKDCKDALYQAAKDLYDEQTAEQVYEAWNEVGVE
In the case of B1, the “degradation of the control peptide” value in the data set with LAR-7047 and with LAR-7048 was “No degradation was observed in these systems” in each case.

B2: Matrix Metalloproteinase-9 (protein)
chain: MRTPRCGVPDLGRFQTFEGDLKWHHHNITYWIQNYSEDLPRAVIDDAFARAFALWSAVTPLTFTRVYSRDADIVIQFGVAEHGDGYPFDGKDGLLAHAFPPGPGIQGDAHFDDDELWSLGKGVVVPTRFGNADGAACHFPFIFEGRSYSACTTDGRSDGLPWCSTTANYDTDDRFGFCPSERLYTQDGNADGKPCQFPFIFQGQSYSACTTDGRSDGYRWCATTANYDRDKLFGFCPTRADSTVMGGNSAGELCVFPFTFLGKEYSTCTSEGRGDGRLWCATTSNFDSDKKWGFCPDQGYSLFLVAAHEFGHALGLDHSSVPEALMYPMYRFTEGPPLHKDDVNGIRHLYGPRPEPEPRPPTTTTPQPTAPPTVCPTGPPTVHPSERPTAGPTGPPSAGPTGPPTAGPSTATTVPLSPVDDACNVNIFDAIAEIGNQLYLFKDGKYWRFSEGRGSRPQGPFLIADKWPALPRKLDSVFEERLSKKLFFFSGRQVWVYTGASVLGPRRLDKLGLGADVAQVTGALRSGRGKMLLFSGRRLWRFDVKAQMVDPRSASEVDRMFPGVPLDTHDVFQYREKAYFCQDRFYWRVSSRSELNQVDQVGYVTYDILQCPED
In the case of B2, the “degradation of the control peptide” value in the data set with LAR-7047 and with LAR-7048 was “No degradation was observed in these systems” in each case. Also, in the data set with LAR-7009, the “hydrolysis of the peptide substrate, fragments by mass spectrometry” value is “Degradation of LAR-7009 ... produced specific fragment pick: 1121.66 corresponding to [..] sequence”.
